In patent US20170306032A1:

Columns and labels:
[1] = target: mouse EphA2 recombinant protein (Fc chimera, R&D Systems, cat#639-A2) (mouse) (UniProt Q03145); assay: end-point titration ELISA on mEphA2
[2] = target: human EphA2 recombinant protein (purified human EphA2 extracellular domain) (human) (UniProt P29317); assay: end-point titration ELISA on huEphA2
[3] = target: human EphA2 receptor expressed on cells (HEK293-EphA2, CHO-EphA2, PC-3) (human) (UniProt P29317); assay: FACS on CHO cells transfected with human EphA2
human EphA2 receptor expressed on cells (HEK293-EphA2, CHO-EphA2, PC-3) (human), sequence (P29317 24-976): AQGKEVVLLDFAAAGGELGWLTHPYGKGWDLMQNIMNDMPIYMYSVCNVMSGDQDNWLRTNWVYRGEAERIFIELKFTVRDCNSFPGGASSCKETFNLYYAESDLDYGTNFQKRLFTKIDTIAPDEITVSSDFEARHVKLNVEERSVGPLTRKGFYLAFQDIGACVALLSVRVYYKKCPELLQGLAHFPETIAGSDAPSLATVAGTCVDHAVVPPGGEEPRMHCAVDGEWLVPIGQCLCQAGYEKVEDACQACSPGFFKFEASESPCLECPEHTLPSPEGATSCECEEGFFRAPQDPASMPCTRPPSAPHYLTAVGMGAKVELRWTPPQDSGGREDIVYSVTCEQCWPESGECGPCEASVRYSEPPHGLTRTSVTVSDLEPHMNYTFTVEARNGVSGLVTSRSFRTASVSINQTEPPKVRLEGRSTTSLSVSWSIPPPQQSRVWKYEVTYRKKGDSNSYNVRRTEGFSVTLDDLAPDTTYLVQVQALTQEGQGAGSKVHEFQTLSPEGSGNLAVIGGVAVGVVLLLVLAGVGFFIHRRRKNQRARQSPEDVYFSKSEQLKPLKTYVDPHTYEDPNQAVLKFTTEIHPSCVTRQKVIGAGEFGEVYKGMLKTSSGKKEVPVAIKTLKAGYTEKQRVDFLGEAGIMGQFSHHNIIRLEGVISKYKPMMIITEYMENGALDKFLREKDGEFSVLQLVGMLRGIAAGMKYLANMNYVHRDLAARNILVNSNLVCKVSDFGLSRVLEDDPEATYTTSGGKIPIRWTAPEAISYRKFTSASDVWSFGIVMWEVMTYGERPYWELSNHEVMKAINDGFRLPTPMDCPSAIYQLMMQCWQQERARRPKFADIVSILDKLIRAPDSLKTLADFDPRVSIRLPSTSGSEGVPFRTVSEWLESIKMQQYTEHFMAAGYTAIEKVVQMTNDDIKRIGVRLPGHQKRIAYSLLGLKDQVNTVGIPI

[4] = target: human EphA2 recombinant protein (purified human EphA2 extracellular domain) (human) (UniProt P29317); assay: SPR, Biacore 3000, immobilized huEphA2 extracellular domain
[5] = target: human EphA2 recombinant protein (purified human EphA2 extracellular domain) (human) (UniProt P29317); assay: SPR, Biacore 3000, immobilized huEphA2 extracellular domain, KDkinetic
[6] = target: human EphA2 recombinant protein (purified human EphA2 extracellular domain) (human) (UniProt P29317); assay: SPR, Biacore 3000, immobilized huEphA2 extracellular domain, KDequilibrium
[7] = target: mouse EphA2 recombinant protein (Fc chimera, R&D Systems, cat#639-A2) (mouse) (UniProt Q03145); assay: BLI, Octet Red, biotinylated mEphA2 on streptavidin sensors, steady state fit (column head prints EC50, title KD)
[8] = target: human EphA2 recombinant protein (purified human EphA2 extracellular domain) (human) (UniProt P29317); assay: BLI, Octet Red, biotinylated huEphA2 on streptavidin sensors, steady state fit (column head prints EC50, title KD)

human EphA2 recombinant protein (purified human EphA2 extracellular domain) (human), sequence (P29317 24-537): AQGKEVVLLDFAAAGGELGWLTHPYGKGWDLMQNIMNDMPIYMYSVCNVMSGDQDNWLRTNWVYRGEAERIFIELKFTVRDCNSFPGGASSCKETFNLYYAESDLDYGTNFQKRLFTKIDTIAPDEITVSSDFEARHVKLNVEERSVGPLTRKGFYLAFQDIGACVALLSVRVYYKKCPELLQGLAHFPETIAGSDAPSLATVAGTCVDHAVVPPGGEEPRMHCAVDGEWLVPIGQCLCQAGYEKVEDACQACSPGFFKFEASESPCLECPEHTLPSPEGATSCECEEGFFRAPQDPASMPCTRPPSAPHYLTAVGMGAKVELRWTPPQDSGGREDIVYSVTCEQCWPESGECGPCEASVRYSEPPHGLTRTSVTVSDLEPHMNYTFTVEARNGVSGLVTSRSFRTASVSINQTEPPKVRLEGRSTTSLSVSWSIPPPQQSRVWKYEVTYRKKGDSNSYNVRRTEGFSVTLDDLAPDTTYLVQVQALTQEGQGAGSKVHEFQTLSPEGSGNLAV
mouse EphA2 recombinant protein (Fc chimera, R&D Systems, cat#639-A2) (mouse), sequence (Q03145 26-535, change not shown): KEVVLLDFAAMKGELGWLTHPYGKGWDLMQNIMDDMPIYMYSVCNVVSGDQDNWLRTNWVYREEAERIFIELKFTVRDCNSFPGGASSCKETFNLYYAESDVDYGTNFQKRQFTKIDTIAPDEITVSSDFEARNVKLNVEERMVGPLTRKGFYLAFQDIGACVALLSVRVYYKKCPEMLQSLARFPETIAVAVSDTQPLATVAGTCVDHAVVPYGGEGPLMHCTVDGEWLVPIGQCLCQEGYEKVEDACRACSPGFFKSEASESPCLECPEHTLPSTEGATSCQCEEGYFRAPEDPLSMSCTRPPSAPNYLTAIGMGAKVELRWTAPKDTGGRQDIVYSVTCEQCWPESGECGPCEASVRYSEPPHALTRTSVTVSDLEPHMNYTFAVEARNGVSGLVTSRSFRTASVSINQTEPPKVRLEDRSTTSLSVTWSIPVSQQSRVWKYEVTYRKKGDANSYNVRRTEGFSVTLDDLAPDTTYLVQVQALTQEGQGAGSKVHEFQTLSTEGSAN

- EC50 [1]: 3.5 nM
- EC50 [2]: 6.54 nM
- EC50 [3]: 151 nM
- koff [4]: 0.0496 s⁻¹
- kon [4]: 716000 M⁻¹ s⁻¹
- Kd [5]: 69 nM
- Kd [6]: 56 nM
- Kd [7]: 30 nM
- Kd [8]: 39 nM
B1: B6 modified CH2 domain (affinity matured, loop 1 PYLHDD, loop 2 of E10) (designed binder)
chain: GPSVFLFPPKPKDTLMISRTPEVTCVVVDPYLHDDEVKFNWYVDGAEVHHAQTKPRQYDPLYGYRVVSVLTVLHQDWLNGKEYKCKVSNKALPAPIEKTISKAK
